Assay results taken from PMC5415409.

Target: Growth Factor Receptor-bound 2 (GRB2), endogenous in HEK cells (human (endogenous in HEK)) (UniProt P62993)
Assay: co-IP

densitometry ratio SWELL1^Δ91/+35/GRB2 in the GRB2 immunoprecipitate: 0.07
Substance: SWELL1^Δ91/+35 mutant, transiently expressed in HEK cells (natural protein)
